Data reported in US9988429B2, “Glucagon analogues” (Zealand Pharma A/S, priority 2013, dated 2018).
Starred links: 1 amine or outer side, 2 acyl side, 3 side chain; linkers in the order of their positions; H or OH if unused. Non-standard residues stand in square brackets, D forms with d. Groups on a side chain read outwards from the residue. *: point of attachment. γGlu = O=C(O)[C@H](CCC(=O)[*:2])N[*:1]; Palmitoyl = CCCCCCCCCCCCCCCC(=O)*; NMeS = CN[C@@H](CO)C(=O)O; Ac4c = NC1(C(=O)O)CCC1; Ac3c = NC1(C(=O)O)CC1

T1: endogenous GLP-1 receptor of a murine insulinoma cell line (murine, UniProt O35659 22-463)
T1 sequence (looked up): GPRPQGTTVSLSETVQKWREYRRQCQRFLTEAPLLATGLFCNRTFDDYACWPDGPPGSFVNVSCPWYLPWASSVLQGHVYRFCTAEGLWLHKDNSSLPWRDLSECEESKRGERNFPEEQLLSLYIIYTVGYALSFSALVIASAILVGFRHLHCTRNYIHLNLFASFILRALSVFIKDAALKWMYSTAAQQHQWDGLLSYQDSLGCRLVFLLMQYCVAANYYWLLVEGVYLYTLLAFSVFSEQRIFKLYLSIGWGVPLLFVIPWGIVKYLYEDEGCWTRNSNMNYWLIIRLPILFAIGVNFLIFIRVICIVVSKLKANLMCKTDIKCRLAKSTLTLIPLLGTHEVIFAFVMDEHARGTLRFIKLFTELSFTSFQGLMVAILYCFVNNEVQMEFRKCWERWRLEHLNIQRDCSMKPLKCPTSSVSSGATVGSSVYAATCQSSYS


Tests used:
Experiment in all cases: cell-based or functional assay
[1] = molecular target: T1, endogenous GLP-1 receptor of a murine …
[2] = molecular target: endogenous glucagon receptor of primary rat hepatocytes (rat, UniProt P30082 27-485)
[3] = molecular target: human glucagon-like peptide 1 receptor (GLP-1R) (human, UniProt P43220 24-463)
[4] = molecular target: human glucagon receptor (Glucagon-R) (human, UniProt P47871 26-477)
human glucagon receptor (Glucagon-R), sequence (P47871 26-477): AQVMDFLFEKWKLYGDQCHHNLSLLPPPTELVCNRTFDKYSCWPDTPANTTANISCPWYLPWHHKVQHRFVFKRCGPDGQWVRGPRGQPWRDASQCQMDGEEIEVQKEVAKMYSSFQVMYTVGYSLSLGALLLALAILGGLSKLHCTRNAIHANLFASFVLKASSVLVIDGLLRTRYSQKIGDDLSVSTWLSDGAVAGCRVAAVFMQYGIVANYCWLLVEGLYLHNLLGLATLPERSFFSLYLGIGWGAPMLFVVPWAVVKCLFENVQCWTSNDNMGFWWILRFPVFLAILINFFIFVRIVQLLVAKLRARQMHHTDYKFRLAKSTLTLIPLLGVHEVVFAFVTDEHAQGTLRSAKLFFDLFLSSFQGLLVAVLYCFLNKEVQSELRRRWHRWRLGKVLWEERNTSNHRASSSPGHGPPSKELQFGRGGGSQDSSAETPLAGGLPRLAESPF

endogenous glucagon receptor of primary rat hepatocytes, sequence (P30082 27-485): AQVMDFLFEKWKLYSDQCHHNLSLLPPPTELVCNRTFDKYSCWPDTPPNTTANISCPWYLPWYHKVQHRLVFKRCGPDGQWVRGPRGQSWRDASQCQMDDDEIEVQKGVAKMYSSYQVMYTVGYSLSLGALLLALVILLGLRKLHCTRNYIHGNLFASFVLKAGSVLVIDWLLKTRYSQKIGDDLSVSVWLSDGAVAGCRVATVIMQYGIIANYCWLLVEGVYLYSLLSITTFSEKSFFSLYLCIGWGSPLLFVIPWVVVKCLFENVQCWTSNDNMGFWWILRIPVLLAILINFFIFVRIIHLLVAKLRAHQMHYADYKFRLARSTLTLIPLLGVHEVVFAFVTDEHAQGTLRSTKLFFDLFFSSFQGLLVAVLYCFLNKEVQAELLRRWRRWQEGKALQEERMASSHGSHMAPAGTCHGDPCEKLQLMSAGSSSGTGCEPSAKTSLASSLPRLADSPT

EC50 [nM] (cAMP in murine insulinoma cell line) [1] | EC50 [nM] (inhibition of glycogen synthesis rate in primary rat hepatocytes) [2] | EC50 hGLP-1R CHO-K1 [nM] (cAMP, AlphaScreen) [3] | EC50 hGCGR CHO-K1 [nM] (cAMP, AlphaScreen) [4] | Binder
0.09 nM | 2.75 nM | 0.27 nM | 0.1 nM | HTQGTFTSDYSKYLDEKAAKDFIEWLESA (position 2 is Abu ((S)-2-aminobutyric acid); Lys17 side chain conjugated to hexadecanoyl-isoGlu; C-terminal amide (NH2)) [Compound 10: H-H-Abu-QGTFTSDYSKYLDE-K(Hexadecanoyl-isoGlu)-AAKDFIEWLESA-NH2]
0.14 nM | 4 nM | 0.21 nM | 3.19 nM | H-HPQGTFTSDYSKYLDEK([γGlu-Palmitoyl])AAKDFIEWLESA-NH2 (SMILES CCCCCCCCCCCCCCCC(=O)N[C@@H](CCC(=O)NCCCC[C@H](NC(=O)[C@H](CCC(=O)O)NC(=O)[C@H](CC(=O)O)NC(=O)[C@H](CC(C)C)NC(=O)[C@H](Cc1ccc(O)cc1)NC(=O)[C@H](CCCCN)NC(=O)[C@H](CO)NC(=O)[C@H](Cc1ccc(O)cc1)NC(=O)[C@H](CC(=O)O)NC(=O)[C@H](CO)NC(=O)[C@@H](NC(=O)[C@H](Cc1ccccc1)NC(=O)[C@@H](NC(=O)CNC(=O)[C@H](CCC(N)=O)NC(=O)[C@@H]1CCCN1C(=O)[C@@H](N)Cc1c[nH]cn1)[C@@H](C)O)[C@@H](C)O)C(=O)N[C@@H](C)C(=O)N[C@@H](C)C(=O)N[C@@H](CCCCN)C(=O)N[C@@H](CC(=O)O)C(=O)N[C@@H](Cc1ccccc1)C(=O)N[C@H](C(=O)N[C@@H](CCC(=O)O)C(=O)N[C@@H](Cc1c[nH]c2ccccc12)C(=O)N[C@@H](CC(C)C)C(=O)N[C@@H](CCC(=O)O)C(=O)N[C@@H](CO)C(=O)N[C@@H](C)C(N)=O)[C@@H](C)CC)C(=O)O) [Compound 13: H-HPQGTFTSDYSKYLDE-K(Hexadecanoyl-isoGlu)-AAKDFIEWLESA-NH2]
0.13 nM | 0.06 nM | 0.68 nM | 18.3 nM | H-H[Ac4c]QGTFTSDYSKYLDEK([γGlu-Palmitoyl])AAKDFIEWLESA-NH2 (SMILES CCCCCCCCCCCCCCCC(=O)N[C@@H](CCC(=O)NCCCC[C@H](NC(=O)[C@H](CCC(=O)O)NC(=O)[C@H](CC(=O)O)NC(=O)[C@H](CC(C)C)NC(=O)[C@H](Cc1ccc(O)cc1)NC(=O)[C@H](CCCCN)NC(=O)[C@H](CO)NC(=O)[C@H](Cc1ccc(O)cc1)NC(=O)[C@H](CC(=O)O)NC(=O)[C@H](CO)NC(=O)[C@@H](NC(=O)[C@H](Cc1ccccc1)NC(=O)[C@@H](NC(=O)CNC(=O)[C@H](CCC(N)=O)NC(=O)C1(NC(=O)[C@@H](N)Cc2c[nH]cn2)CCC1)[C@@H](C)O)[C@@H](C)O)C(=O)N[C@@H](C)C(=O)N[C@@H](C)C(=O)N[C@@H](CCCCN)C(=O)N[C@@H](CC(=O)O)C(=O)N[C@@H](Cc1ccccc1)C(=O)N[C@H](C(=O)N[C@@H](CCC(=O)O)C(=O)N[C@@H](Cc1c[nH]c2ccccc12)C(=O)N[C@@H](CC(C)C)C(=O)N[C@@H](CCC(=O)O)C(=O)N[C@@H](CO)C(=O)N[C@@H](C)C(N)=O)[C@@H](C)CC)C(=O)O) [Compound 14: H-H-Ac4c-QGTFTSDYSKYLDE-K(Hexadecanoyl-isoGlu)-AAKDFIEWLESA-NH2]

Second part, the binder before the results:

Binder | EC50 [nM] (cAMP in murine insulinoma cell line) [1] | EC50 [nM] (inhibition of glycogen synthesis rate in primary rat hepatocytes) [2] | EC50 hGLP-1R CHO-K1 [nM] (cAMP, AlphaScreen) [3] | EC50 hGCGR CHO-K1 [nM] (cAMP, AlphaScreen) [4]
H-H[dA]HGTFTSDYSKYLDSK([γGlu-Palmitoyl])AAHDFVEWLLSA-NH2 (SMILES CCCCCCCCCCCCCCCC(=O)N[C@@H](CCC(=O)NCCCC[C@H](NC(=O)[C@H](CO)NC(=O)[C@H](CC(=O)O)NC(=O)[C@H](CC(C)C)NC(=O)[C@H](Cc1ccc(O)cc1)NC(=O)[C@H](CCCCN)NC(=O)[C@H](CO)NC(=O)[C@H](Cc1ccc(O)cc1)NC(=O)[C@H](CC(=O)O)NC(=O)[C@H](CO)NC(=O)[C@@H](NC(=O)[C@H](Cc1ccccc1)NC(=O)[C@@H](NC(=O)CNC(=O)[C@H](Cc1c[nH]cn1)NC(=O)[C@@H](C)NC(=O)[C@@H](N)Cc1c[nH]cn1)[C@@H](C)O)[C@@H](C)O)C(=O)N[C@@H](C)C(=O)N[C@@H](C)C(=O)N[C@@H](Cc1c[nH]cn1)C(=O)N[C@@H](CC(=O)O)C(=O)N[C@@H](Cc1ccccc1)C(=O)N[C@H](C(=O)N[C@@H](CCC(=O)O)C(=O)N[C@@H](Cc1c[nH]c2ccccc12)C(=O)N[C@@H](CC(C)C)C(=O)N[C@@H](CC(C)C)C(=O)N[C@@H](CO)C(=O)N[C@@H](C)C(N)=O)C(C)C)C(=O)O) [Compound 7: H-H-DAla-HGTFTSDYSKYLDS-K(Hexadecanoyl-isoGlu)-AAHDFVEWLLSA-NH2] | 0.3 nM | 0.28 nM | 0.35 nM | 0.6 nM
H-H[Ac3c]HGTFTSDYSKYLDSK([γGlu-Palmitoyl])AAHDFVEWLLSA-NH2 (SMILES CCCCCCCCCCCCCCCC(=O)N[C@@H](CCC(=O)NCCCC[C@H](NC(=O)[C@H](CO)NC(=O)[C@H](CC(=O)O)NC(=O)[C@H](CC(C)C)NC(=O)[C@H](Cc1ccc(O)cc1)NC(=O)[C@H](CCCCN)NC(=O)[C@H](CO)NC(=O)[C@H](Cc1ccc(O)cc1)NC(=O)[C@H](CC(=O)O)NC(=O)[C@H](CO)NC(=O)[C@@H](NC(=O)[C@H](Cc1ccccc1)NC(=O)[C@@H](NC(=O)CNC(=O)[C@H](Cc1c[nH]cn1)NC(=O)C1(NC(=O)[C@@H](N)Cc2c[nH]cn2)CC1)[C@@H](C)O)[C@@H](C)O)C(=O)N[C@@H](C)C(=O)N[C@@H](C)C(=O)N[C@@H](Cc1c[nH]cn1)C(=O)N[C@@H](CC(=O)O)C(=O)N[C@@H](Cc1ccccc1)C(=O)N[C@H](C(=O)N[C@@H](CCC(=O)O)C(=O)N[C@@H](Cc1c[nH]c2ccccc12)C(=O)N[C@@H](CC(C)C)C(=O)N[C@@H](CC(C)C)C(=O)N[C@@H](CO)C(=O)N[C@@H](C)C(N)=O)C(C)C)C(=O)O) [Compound 8: H-H-Ac3c-HGTFTSDYSKYLDS-K(Hexadecanoyl-isoGlu)-AAHDFVEWLLSA-NH2] | 0.24 nM | 1.18 nM | 0.24 nM | 1.82 nM
H-H[Ac4c]HGTFTSDYSKYLDSK([γGlu-Palmitoyl])AAHDFVEWLLSA-NH2 (SMILES CCCCCCCCCCCCCCCC(=O)N[C@@H](CCC(=O)NCCCC[C@H](NC(=O)[C@H](CO)NC(=O)[C@H](CC(=O)O)NC(=O)[C@H](CC(C)C)NC(=O)[C@H](Cc1ccc(O)cc1)NC(=O)[C@H](CCCCN)NC(=O)[C@H](CO)NC(=O)[C@H](Cc1ccc(O)cc1)NC(=O)[C@H](CC(=O)O)NC(=O)[C@H](CO)NC(=O)[C@@H](NC(=O)[C@H](Cc1ccccc1)NC(=O)[C@@H](NC(=O)CNC(=O)[C@H](Cc1c[nH]cn1)NC(=O)C1(NC(=O)[C@@H](N)Cc2c[nH]cn2)CCC1)[C@@H](C)O)[C@@H](C)O)C(=O)N[C@@H](C)C(=O)N[C@@H](C)C(=O)N[C@@H](Cc1c[nH]cn1)C(=O)N[C@@H](CC(=O)O)C(=O)N[C@@H](Cc1ccccc1)C(=O)N[C@H](C(=O)N[C@@H](CCC(=O)O)C(=O)N[C@@H](Cc1c[nH]c2ccccc12)C(=O)N[C@@H](CC(C)C)C(=O)N[C@@H](CC(C)C)C(=O)N[C@@H](CO)C(=O)N[C@@H](C)C(N)=O)C(C)C)C(=O)O) [Compound 9: H-H-Ac4c-HGTFTSDYSKYLDS-K(Hexadecanoyl-isoGlu)-AAHDFVEWLLSA-NH2] | 0.21 nM | 0.07 nM | 0.33 nM | 0.2 nM
H-H[NMeS]QGTFTSDYSKYLDSK([γGlu-Palmitoyl])AAHDFVEWLLSA-NH2 (SMILES CCCCCCCCCCCCCCCC(=O)N[C@@H](CCC(=O)NCCCC[C@H](NC(=O)[C@H](CO)NC(=O)[C@H](CC(=O)O)NC(=O)[C@H](CC(C)C)NC(=O)[C@H](Cc1ccc(O)cc1)NC(=O)[C@H](CCCCN)NC(=O)[C@H](CO)NC(=O)[C@H](Cc1ccc(O)cc1)NC(=O)[C@H](CC(=O)O)NC(=O)[C@H](CO)NC(=O)[C@@H](NC(=O)[C@H](Cc1ccccc1)NC(=O)[C@@H](NC(=O)CNC(=O)[C@H](CCC(N)=O)NC(=O)[C@H](CO)N(C)C(=O)[C@@H](N)Cc1c[nH]cn1)[C@@H](C)O)[C@@H](C)O)C(=O)N[C@@H](C)C(=O)N[C@@H](C)C(=O)N[C@@H](Cc1c[nH]cn1)C(=O)N[C@@H](CC(=O)O)C(=O)N[C@@H](Cc1ccccc1)C(=O)N[C@H](C(=O)N[C@@H](CCC(=O)O)C(=O)N[C@@H](Cc1c[nH]c2ccccc12)C(=O)N[C@@H](CC(C)C)C(=O)N[C@@H](CC(C)C)C(=O)N[C@@H](CO)C(=O)N[C@@H](C)C(N)=O)C(C)C)C(=O)O) [Compound 2: H-H-NMeSer-QGTFTSDYSKYLDS-K(Hexadecanoyl-isoGlu)-AAHDFVEWLLSA-NH2] | 0.52 nM | 5.4 nM | 0.92 nM | 0.24 nM
